Laboratory results published in patent US20260209362A1 (VIB VZW, published 2026).
Positions count from the first letter of the chain named. Blank lines part the entries; values can stand above or below the binder they belong to.

What was measured:
[1] = biological target: T1, biotinylated recombinant mouse IL-12Rβ2 (produced in-house) (mouse, UniProt P97378 24-637, random biotinylated); assay: ELISA, P.E. VHH on biotinylated mIL-12RB2, signal ratio to control well
T1 construct: also called mIL-12RB2; mIL12RB2
T1 sequence: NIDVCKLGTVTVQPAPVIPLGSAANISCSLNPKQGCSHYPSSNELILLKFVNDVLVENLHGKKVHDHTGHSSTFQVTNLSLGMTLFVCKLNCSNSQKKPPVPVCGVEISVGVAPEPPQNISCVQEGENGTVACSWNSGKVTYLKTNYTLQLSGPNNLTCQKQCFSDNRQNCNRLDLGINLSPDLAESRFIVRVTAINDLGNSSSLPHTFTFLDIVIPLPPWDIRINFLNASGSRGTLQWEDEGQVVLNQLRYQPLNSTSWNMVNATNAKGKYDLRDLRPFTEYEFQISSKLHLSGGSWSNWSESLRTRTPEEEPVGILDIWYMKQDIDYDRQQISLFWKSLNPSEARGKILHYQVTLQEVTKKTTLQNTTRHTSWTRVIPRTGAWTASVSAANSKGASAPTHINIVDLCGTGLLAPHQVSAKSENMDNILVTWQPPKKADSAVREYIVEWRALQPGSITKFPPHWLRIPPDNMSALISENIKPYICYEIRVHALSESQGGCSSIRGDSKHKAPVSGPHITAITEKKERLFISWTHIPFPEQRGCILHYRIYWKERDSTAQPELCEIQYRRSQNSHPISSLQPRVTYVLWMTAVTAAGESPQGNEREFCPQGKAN

[2] = biological target: T1, biotinylated recombinant mouse IL-12Rβ2 …; assay: ELISA, P.E. VHH on biotinylated mIL-12RB2
[3] = biological target: T2, biotinylated recombinant human IL-12Rβ2 (produced in-house) (human, UniProt Q99665 24-622, random biotinylated); assay: BLI (Octet), P.E. VHH on immobilised biotinylated hIL-12RB2, 1:1 model
T2 construct: also called hIL-12RB2; hIL12RB2
T2 sequence: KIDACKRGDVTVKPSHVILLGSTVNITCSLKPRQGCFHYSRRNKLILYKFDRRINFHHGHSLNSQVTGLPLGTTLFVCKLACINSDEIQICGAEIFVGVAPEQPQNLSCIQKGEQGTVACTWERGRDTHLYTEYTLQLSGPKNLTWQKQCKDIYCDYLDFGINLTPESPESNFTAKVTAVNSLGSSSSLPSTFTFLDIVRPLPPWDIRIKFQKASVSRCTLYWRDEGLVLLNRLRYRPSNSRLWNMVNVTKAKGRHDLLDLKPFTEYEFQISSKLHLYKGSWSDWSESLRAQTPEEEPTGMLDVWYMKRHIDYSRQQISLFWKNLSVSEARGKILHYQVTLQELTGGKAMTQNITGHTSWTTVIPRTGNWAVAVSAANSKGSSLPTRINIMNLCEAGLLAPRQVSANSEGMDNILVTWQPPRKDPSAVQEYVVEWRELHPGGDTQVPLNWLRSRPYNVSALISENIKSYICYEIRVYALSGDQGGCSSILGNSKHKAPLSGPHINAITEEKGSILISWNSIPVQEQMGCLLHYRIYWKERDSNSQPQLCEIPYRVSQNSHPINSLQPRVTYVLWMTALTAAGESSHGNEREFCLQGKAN

[4] = biological target: T2, biotinylated recombinant human IL-12Rβ2 …; assay: ELISA, P.E. VHH on biotinylated hIL-12RB2, signal ratio to control well
[5] = biological target: T3, human IL-12Rβ2 expressed on cells (human, UniProt Q99665 24-862); assay: flow cytometry, P.E. VHH on HEK293T cells transiently expressing hIL-12RB2
T3 construct: HEK293T cells transiently transfected with a human IL-12Rβ2 plasmid (Genscript OHu21785); also called hIL-12RB2
T3 sequence: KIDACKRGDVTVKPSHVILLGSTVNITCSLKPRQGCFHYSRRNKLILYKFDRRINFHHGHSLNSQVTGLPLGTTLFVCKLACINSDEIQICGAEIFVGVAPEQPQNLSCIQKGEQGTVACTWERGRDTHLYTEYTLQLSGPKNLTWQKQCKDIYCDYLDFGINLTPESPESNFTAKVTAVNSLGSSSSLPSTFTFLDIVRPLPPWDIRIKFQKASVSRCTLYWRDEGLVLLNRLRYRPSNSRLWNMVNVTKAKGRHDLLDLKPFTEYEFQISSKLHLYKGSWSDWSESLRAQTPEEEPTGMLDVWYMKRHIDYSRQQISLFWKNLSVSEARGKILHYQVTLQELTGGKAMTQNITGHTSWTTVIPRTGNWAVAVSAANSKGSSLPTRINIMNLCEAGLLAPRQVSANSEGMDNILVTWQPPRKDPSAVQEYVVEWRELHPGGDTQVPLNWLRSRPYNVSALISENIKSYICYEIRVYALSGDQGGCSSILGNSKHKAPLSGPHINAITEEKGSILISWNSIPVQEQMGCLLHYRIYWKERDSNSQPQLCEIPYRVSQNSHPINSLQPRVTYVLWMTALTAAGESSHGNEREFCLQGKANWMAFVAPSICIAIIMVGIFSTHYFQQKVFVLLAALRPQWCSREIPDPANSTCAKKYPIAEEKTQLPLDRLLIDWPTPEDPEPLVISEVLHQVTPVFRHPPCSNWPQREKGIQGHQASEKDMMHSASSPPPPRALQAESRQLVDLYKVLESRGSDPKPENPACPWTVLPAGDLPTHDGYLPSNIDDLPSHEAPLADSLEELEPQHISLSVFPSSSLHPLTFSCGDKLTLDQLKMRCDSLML

[6] = biological target: T2, biotinylated recombinant human IL-12Rβ2 …; assay: BLI (Octet), P.E. VHH on immobilised biotinylated hIL-12RB2
[7] = biological target: T4, biotinylated mouse recombinant IL-12Rβ2 (produced in-house) (mouse, UniProt P97378 24-637, random biotinylated); assay: ELISA, periplasmic extract on biotinylated mouse IL-12Rβ2; signal over streptavidin control well
T4 construct: Soluble recombinant protein used for panning, ELISA and BLI; also called mIL-12RB2; mIL12RB2
T4 sequence: T1 sequence

[8] = biological target: T5, biotinylated human recombinant IL-12Rβ2 (produced in-house) (human, UniProt Q99665 24-622, random biotinylated); assay: BLI (Octet Red), periplasmic extract on biotinylated human IL-12Rβ2 on streptavidin tips
T5 construct: Soluble recombinant protein used for panning, ELISA and BLI; also called hIL-12RB2; hIL12RB2
T5 sequence: T2 sequence

[9] = biological target: T4, biotinylated mouse recombinant IL-12Rβ2 …; assay: ELISA, periplasmic extract on biotinylated mouse IL-12Rβ2
[10] = biological target: T5, biotinylated human recombinant IL-12Rβ2 …; assay: ELISA, periplasmic extract on biotinylated human IL-12Rβ2; signal over streptavidin control well
[11] = biological target: T5, biotinylated human recombinant IL-12Rβ2 …; assay: BLI (Octet Red), periplasmic extract on biotinylated human IL-12Rβ2 on streptavidin tips, 1:1 model
[12] = biological target: T6, human IL-12Rβ2 expressed on cells (human, UniProt Q99665 24-862); assay: flow cytometry, periplasmic extract VHH-HA on HEK293T cells transiently expressing human IL-12Rβ2
T6 construct: the cell lines are described by plasmid or cDNA number only; also called hIL-12RB2; HEK293T transiently transfected with human IL-12Rβ2
T6 sequence: T3 sequence

- ELISA mIL12RB2/control [1]: 1
- binding result [2]: no binding
- koff [3]: 0.00324 s⁻¹
- ELISA hIL12RB2/control [4]: 5.67
- dMFI [5]: 1100
- Response [6]: 0.293
B1: anti-IL-12Rβ2 VHH clone 3CAHS124 (VHH, not shown: small tags and cut ends)
VHH: QVQLQESGGGLVQPGGSLRLSCAASGRTINAYIMGWFRQAPGKEREFVAAVSGSGGSTYYADSVKGRFTISRDNAKNTVNLQMDNLRSEDTDVYYCAATYESVYLQNPGQYDYWGQGTQVTVSS
notes: tested as periplasmic extract

- mIL12RB2/control (ELISA) [7]: 1.35 ratio
- Response [8]: 0.509
- binding result [9]: no binding
- hIL12RB2/control (ELISA) [10]: 8.77 ratio
- koff [11]: 0.00441 s⁻¹
- % cells bound [12]: 43.3%
- dMFI [12]: 971
B2: anti-IL-12Rβ2 VHH clone 3CAHS41 (clone ID 20394) (VHH)
VHH: QVQLQESGGGLVQAGDSLRLSCAASGRTFDTYIVGWFRQAPGKEREFVSALSWSDDTTIRDDSLRGRFTISRDNAKNTVYLLMNSLKPEDTAVYYCAAKAKPPAATWSSYRNREWYDYWGQGTQVTVSS
notes: Tested as periplasmic extract; not shown: C-terminal HA tag

- ELISA mIL12RB2/control [1]: 0.93
- binding result [2]: no binding
- koff [3]: 0.00302 s⁻¹
- ELISA hIL12RB2/control [4]: 3.58
- dMFI [5]: 1050
- Response [6]: 0.339
B7: anti-IL-12Rβ2 VHH clone 3CRHS163 (VHH, not shown: small tags and cut ends)
VHH: QVQLQESGGGLVQPGGSLRLSCTASGFAFSTYWMYWIRQSPEKGFEWVSVVNTGGDITYYADSVKGRFTISRDNAKNTLYLQMNSLKPEDTALYYCARDRTTMSYTRTYYRGGQGTQVTVSS
notes: tested as periplasmic extract

- ELISA mIL12RB2/control [1]: 1.03
- binding result [2]: no binding
- koff [3]: 0.00355 s⁻¹
- ELISA hIL12RB2/control [4]: 10.2
- dMFI [5]: 1010
- Response [6]: 0.297
B9: anti-IL-12Rβ2 VHH clone 3CRHS106 (VHH, not shown: small tags and cut ends)
VHH: QVQLQESGGGLVQPGGSLRLSCKASGFTFSTYAMSWVRQAPGKGLEWVSAVNSGGLSTDYADSVEGRFTISRDDAKNMLFLQMNSLKPEDTARYYCAKYEDCSDYMCHRDRAGYWGQGTQVTVSS
notes: tested as periplasmic extract

- binding result [2]: no binding
- koff [3]: 0.0043 s⁻¹
- dMFI [5]: 1140
- Response [6]: 0.327
B11: anti-IL-12Rβ2 VHH clone 3CRHS51 (VHH, not shown: small tags and cut ends)
VHH: QVQLQESGGGLVQPGGSLRLSCAASGFTFSTYAMSWVRQAPGKGLEWVSAVNSGGLSTDYADSVEGRFTISRDDAKNMLFLQMNRLKPEDTARYYCAKYEDCSDYVCDRAGYWGQGTQVTVSS
notes: tested as periplasmic extract; also called 3CRASS1

Continued, binder first:

B3: anti-IL-12Rβ2 VHH clone 3CRHS54 (VHH, not shown: small tags and cut ends)
VHH: QVQLQESGGGLVQPGGSLRLSCTASGSIVSIYNMDWYRQAPGNEREWVASITSSGDPYYDGSAKGRFTISRDNAKMTVYLQMNSLEPEDTAVYFCKVPTEKGNYWGQGTQVTVSS
notes: tested as periplasmic extract; also called 3CRHSS4
- ELISA mIL12RB2/control [1]: 1.26
- binding result [2]: no binding
- koff [3]: 0.00272 s⁻¹
- ELISA hIL12RB2/control [4]: 7.85
- dMFI [5]: 870
- Response [6]: 0.203

B4: anti-IL-12Rβ2 VHH clone 3CRHS9 (VHH, not shown: small tags and cut ends)
VHH: B3 VHH with E86K, F94Y
notes: tested as periplasmic extract
- ELISA mIL12RB2/control [1]: 1.09
- binding result [2]: no binding
- koff [3]: 0.0034 s⁻¹
- ELISA hIL12RB2/control [4]: 5.08
- dMFI [5]: 941
- Response [6]: 0.222

B5: anti-IL-12Rβ2 VHH clone 3CRHS128 (VHH, not shown: small tags and cut ends)
VHH: QVQLQESGGGLVQPGGSLRLSCAASGFTFSTSGMHWFRQAPGKGLEWVSSIGATVDNSYYASSVKGRFTISRDNAKNTLYLLMNSLKSEDTAVYYCSKDPTGSSRGQGTQVTVSS
notes: tested as periplasmic extract; also called SCRHS128
- ELISA mIL12RB2/control [1]: 0.98
- binding result [2]: no binding
- koff [3]: 0.00274 s⁻¹
- ELISA hIL12RB2/control [4]: 3.65
- dMFI [5]: 1380
- Response [6]: 0.294

B6: anti-IL-12Rβ2 VHH clone 3CRH5 (VHH, not shown: small tags and cut ends)
VHH: QVQLQESGGGLVQAGGSLVLSCAASGSAALIFLMSWYRQAPGKQRELVAEVSRGGSTTYADSVEGRFTISRDNAKNIVDLQMNSLKPEDTAVYYCKADQNYGDSLRSSWGQGTQVTVSS
notes: tested as periplasmic extract; also called 3CRHS
- ELISA mIL12RB2/control [1]: 0.81
- binding result [2]: no binding
- koff [3]: 0.00337 s⁻¹
- ELISA hIL12RB2/control [4]: 8.64
- dMFI [5]: 735
- Response [6]: 0.491

B8: anti-IL-12Rβ2 VHH clone 3CAHS142 (VHH, not shown: small tags and cut ends)
VHH: QVQLQESGGGLVQAGESLTLSCIASGVIKDYAMGWFRQAPGKEREFVAAISWSGVSIYYADSVKGRFTISRDNAKNTVYLQMNSLEPEDTAVYYCAGTEGAYTVAGGSTFGYDMDYWGKGTQVTVSS
notes: tested as periplasmic extract
- ELISA mIL12RB2/control [1]: 1.07
- binding result [2]: no binding
- koff [3]: 0.00324 s⁻¹
- ELISA hIL12RB2/control [4]: 4.98
- dMFI [5]: 812
- Response [6]: 0.352

B10: anti-IL-12Rβ2 VHH clone 3CAHS171 (clone ID 20407) (VHH)
VHH: QVQLQESGGGLVQPGGSLRLTCVASGFPFSTHAMSWVRQPPGKGREWISAINSGGDSTDYADSVMGRFTISRDNAKNTVYLQMNSLKSEDTAAYYCAKYEDCSDYDCSSRASWGQGTQVTVSS
notes: as for B2
- mIL12RB2/control (ELISA) [7]: 0.96 ratio
- Response [8]: 0.195
- binding result [9]: no binding
- hIL12RB2/control (ELISA) [10]: 3.27 ratio
- koff [11]: 0.00431 s⁻¹
- % cells bound [12]: 47.5%
- dMFI [12]: 1180
